Test: soluble on expression in E. coli; label from the status in PepcDB or PDB records

Sequence | soluble on expression in E. coli
MGSDKIHHHHHHMKHKIVEVKNVLACLELMENLQGRSSITPGIGLIHGPSGFGKTTTLCWLINQLGAMNAIYVRCYATDTPSSFLARIMEELGSEMLYPMRKSVDFIVDRMNERQLPLFIDEADHIVGQSKIMETIRDLYDATEQPVVLVGMEEIARRISHRKQLFNRVSEWVEFQPADLSDVHSFAAELLDDRITVADDLLEHIRKRSGGEVRRILTALEKIERSAIANDMDIVTLDNWGDQPLFLEFRR | not soluble
GAPRSHEVPLLVTLEELYLGKRKKIKVTRKRFIEHKVRNEENIVEVEIKPGWKDGTKLTYSGEGDQESPGTSPGDLVLIIQTKTHPRFTRDDCHLIMKVTIPLVRALTGFTCPVTTLDNRNLQIPIKEIVNPKTRKIVPNEGMPIKNQPGQKGDLILEFDICFPKSLTPEQKKLIKEALD | soluble
PDLTAALRDVRQQYESVAAKNLQEAEEWYKSKFADLSEAANRNNDALRQAKQESTEYRRQVQSLTCEVDALK | soluble
MGSDKIHHHHHHMTYTSLQSPADKDYLYDIRVAHLYGNLLNTYGDNGNVLMLKYVGEKLGIRMTFDIVSIGDDFDANKYDMVFFGGGQDYEQSIVAKDLPNKRSAIASFIQNNKVVLAICGGFQLLGQYYVQANGVRIDGIGVMGHYTLNQKDNRYIGDIKIHNDEFNETYYGFENHQGRTFLSDDEKPLGRVIYGNGNNKEDGSEGVHYKNVFGSYFHGPILSRNANLAYRLVTTALHNKYGIDIQLPRYEDILSLEVAEEYGDVKSKAEFEK | not soluble
SPFDANKLYCSEVLAILLQDNDENRELLGELDGIDVLLQQLSVFKRHNPSTAEEQEMMENLFDSLCSCLMLSSNRERFLKGEGLQLMNLMLREKKISRSSALKVLDHAMIGPEGTDNCHKFVDILGLRTIFPLFMKSPRKIKKVGTTEKEHEEHVCSILASLLRNLRGQQRTRLLNKFTENDSEKVDRLMELHFKYLGAMQVADKKIEGEKHDMVRRGEIIDNDTEEEFYLRRLDAGLFVLQHICYIMAEICNANVPQIRQRVHQILNMRGSSIKIVRHIIKEYAENIGDGRSPEFRENEQKRILGLLENF | not soluble
MSLARQNYHDEVEAAVNKQINVELYASYVYLSMSAHFDRDDIALRNIAKFFKEQSDEERGHATELMRIQAVRGGRVAMQNIQKPEKDEWGTVLEAFEAALALERANNASLLKLHGIAEQRNDAHLTNYIQEKYLEEQVHSINEFARHIANIKRAGPGLGEYLFDKEEFSD | not soluble
QVQLQQSGPGLVKPSQTLSLTCAISGDSVSSNSAAWNWIRQSPSRGLEWLGRTYYRSKWFNDYAVSVQSRITINPDTSKNQFSLQLNSVTPEDTAVYYCARGIVFSYAMDVWGQGTTVTVSSASTKGPSVFPLAPSSKSTSGGTAALGCLVKDYFPEPVTVSWNSGALTSGVHTFPAVLQSSGLYSLSSVVTVPSSSLGTQTYICNVNHKPSNTKVDKKVEPKSCAADEVDHHHHHH | soluble
MAEHVEIVEMAARDGLQNEKRFVPTADKIALINRLSDCGYARIEATSFVSPKWVPQLADSREVMAGIRRADGVRYSVLVPNMKGYEAAAAAHADEIAVFISASEGFSKANINCTIAESIERLSPVIGAAINDGLAIRGYVSCVVECPYDGPVTPQAVASVTEQLFSLGCHEVSLGDTIGRGTPDTVAAMLDAVLAIAPAHSLAGHYHDTGGRALDNIRVSLEKGLRVFDASVGGLGGSPFAPGAKGNVDTVAVVEMLHEMGFETGLDLDRLRSAGLFTQALRQDKAALEHHHHHH | soluble
MSNEQPNNPLHGLSLEKIVTRLVEHFGWNGLYERVRVNCFKKDPSIKSSLKFLRKTQWARDKVEALYIETFCLEHHHHHH | not soluble
MKNYKKYYIIPAPPEEVYLALTVPTTLLLWTGEEAVMSTEPESEFSLWGGSIEGRNIEFIEGKKIVQQWYFGDQEEPSIVTIILHPDKQDSTSAELRHTNIPDEAYEDMVEGWNGAYFGALQEFYEDEELEHHHHHH | soluble
MAGDPMAEAGNKTQNQSATEVNASPLQPAEYFIYHNLMNDKGLIKTDFSDQPSYLSESLGLWMEFLLSKNDAPHFQDQYQHLTDSFLMSNHLVTWKIQNGQASGTNALIDDMRIMLSLDQAAAKWGRSDYAQTARDIGTSLKTYNMNNGFFTDFYDSQAASKDVTLSYVMPDALAVLKKNGIIDEETEQRNANVLYSAPLKNGFLPKTYSSETKEYTYDSEINLIDQLYAAWHLPEGDEKASVLADWIKQEFQKNGKLYGRYSAYTKEPAVQYESPSVYALAVLFLTKQHENSSVIKAIYDRMNDFEIHDPVKSYYGGYMSGTQTHSFDNLLPLLAERKLFNENIIQLEHHHHHH | soluble
SLHAQTFHSDSLLSQEEAAAAGDRRPAPDTWIYPLIQMKPFEIQIDEIVTETLLMEAERGAKVFLTTGYFNLTQAYMDLVLGTRAEYQILLASPEVNGFFGAKGVAGAIPAAYVHIERQFYSEVCSLGQQDRVQLQEYWRRGWTFHAKGLWLYLAGSSLPCLTLIGSPNFGYRSVHRDLEAQIAIVTESRSLQQQLHQEQEQLYLRSGVVTSATFEQPGRQVKLWVKMVTPLIKNFF | soluble
MGSDKIHHHHHHLELSSHFTPEKIQVGISSCLLGQKVRFDGGHKNSYYCDVTLREHVEFVPVCPEMSIGLGAPRKSIRQVRDGDTLLIQSGDGSLDVTDKLNTFSQQKVAELDFLGGYILCAKSPTCGMERVTEYKIGTNNGSKAGVGVFAKVLMETYPHLPVEEEGRLNDLVLRENFITRLYAYHDWFSMLASGLTKHKLIQFHSRYKYLIMAHSPKWYRALGPILADIQDLSASADAYFDGFMTALKIKATRKNHTSTLQHIQGYFKKHLSAGQKQELSESIDKYRQGLLPLLVPITLINHYLREFPTPYIESQVYLNPHPEELKLRYAY | not soluble
MLKFISLLGTSKYVPCNYFIKNREELKINDCCYVQKAILDILRQENVIPDKIIIFTTDEAHVSNWENNKWNNKGDKNDVQEIEDELQKRPGLKGELEKYKELTGADFKSVRIPNGIREEDLWEIFRTIFDEIDENDEIIFDVTHSFRYLPMLVFIVINYARVVKKCKLKSIYYGAFEVLGTPETVAKIPLEERNAPIFDLTSFVDLFDWTMGIDRYLNTGDVSVVHELTDIQIKRVNKEKLKFISKSEQGVDPKTLFMDSRQLRALSESMKNFSDVVFTCRGLELTRVACELKEKLREVTESASRQHIIPLMPVLEMMKERFDKFSKDNDYINIIETARWCADNKMYQQGLTILEEGLISFGCEKLGYENLSDKIDLDKRRKIGSYAFVVSNDFGRKSDNKKEKIPLLNIKSDVITDLLILIDEISSIRNDINHAGWRKDPSEAGAFGEQLKNFISRAEKIISPENFSTESDKCINNDSVDKEKKMLLILSHKLVPKQEEEARQRFGISKFLPMPNELHNKWSNIPPELEDLRDYLNDILEWIDLNAQEGDYALIQGDYGATFIAVNHCLAKGIIPVYSTTHRIVREEKNEDKVISVREFEHVILRKYEN | not soluble
TGQIGTKGTVLFCNPTETEQYLKCNVEMFVQGASSANDFKKGYTFDLYNSNGEELGVKFGDMISSSSFHLKAFYRDPTHTRDQAGYRFWKSLAETLDYPYCKINNSVYAQSTTRSDKAEFTFDAKYYPHGFPVEIYLNDTFHGLYTLRLKKTRENYTLNNADLNHIFLDNAEYRARLNTSFNYAQWEIKSPKMKGYSDQGPIPATFPTVQAAIDNLFNFTKGLSANYANHATVLNLPHWVLFYILAELTGHWDIDGNNYNIFTWDGVHWSILPYDMDLTLNWYRNSGATQTGFLINVDIWQTFRTVYSNEIKAMWTKFRNEKSLTTEKVVNTYRNVAKDIPREVYVADKAKWGLATDFTGNDYPNIEQIYRYITARIAYL | not soluble
MGSDKIHHHHHHMSSLATLAQPLADGTFQCLACQWRCTLAPGEIGRCHMRIGREEGIELINHGMISGAAIGPVEDHRLWHFFPDTTVLAIGGWGYALPIDQQRGPYGTLPTEPAKQRRLEPQRAADFALERLCRGVVWAFGEPAVNFEYVLALLQLSRAASRYTAIVTSGMLSLEALNELGPYLNGISLDLRGFSDNAYQRLGGISDWRHILRFAEEAQQRWKCHIEITTRIHHGVNDHPDELRDLVEWIKKTLGEETPWHVLPGDAGSETAAATKQARRIGHEGGLQFIYGHEPNQPTRCPSCHATLINRQHGVSRRVGLDGNRCSNCGYATNLYLSIFKVHRT | not soluble
MTFLIPAYNEEKSIGPLIDRIKMLCPDSEIIVVDNNSSDRTSEIATSRGVRVIFEGKQGKANAMVAAFRNTRTEYAVMMDADLTYLPDDSRVLVEVLKAEGADVVLGSRLNGEKEDGAISRINTVGNHILSFTASILYSPVSDVCTGHWAFNRRAIRHILEEGLNYSGFELEAEMFSKLARAGLKIVEVPITYRKRSDEPKLSSFTDGFKIFRTLVLERLRLEHHHHHH | not soluble
MHHHHHHSSGRENLYFQGDLQATPGMFITSKKGHLSEMYQRVKKLGSGAYGEVLLCRDKVTHVERAIKIIRKTSVSTSSNSKLLEEVAVLKLLDHPNIMKLYDFFEDKRNYYLVMECYKGGELFDEIIHRMKFNEVDAAVIIKQVLSGVTYLHKHNIVHRDLKPENLLLESKEKDALIKIVDFGLSAVFENQKKMKERLGTAYYIAPEVLRKKYDEKCDVWSIGVILFILLAGYPPFGGQTDQEILRKVEKGKYTFDSPEWKNVSEGAKDLIKQMLQFDSQRRISAQQALEHPWIKEMCSKKESGIELPSLANAIENMRKFQNSQKLAQAALLYMASKLTSQEETKELTDIFRHIDKNGDGQLDRQELIDGYSKLSGEEVAVFDLPQIESEVDAILGAADFDRNGYIDYSEFVTVAMDRKSLLSKDKLESAFQKFDQDGNGKISVDELASVFGLDHLESKTWKEMISGIDSNNDGDVDFEEFCKMIQKLCSNNE | soluble
MKRLTIEMLPTLIGNEKLLVDCLFILFCTLKTKSLPPIRVLVRTNQSNLILDTLYEKLSKAVDKKLIFVASPEKPFDVIITDIFSEVSVKSTVPTYYVDFSASIGELAQSLENLNTQIVTKQSPRHF | not soluble
MRYLLSLSVFLIVSLNPAFAEWTGDNVEGMHSGMIINKFHSGQVDGKPYFCIEAFKPSTTITACSVKDTSIWGASYNTLYDQAMYYYTTGKRIRVYYAPDVWTNNSFVRALTANALVGFSTCISESSCFGPDRKKHKFTVH | not soluble
GMTQDNASGDQVSKQHKAFLRKLYLAHLMDDARHNLLSLGKLTGMPRRTLQDAIASFADIGIEVEFVQDGERHNAGYYRIRTWGPISSAWMDTHVDEVKSLLGVDDAVGQATAGNGA | soluble
NSNNKRAPYWTNTEKMEKRLHAVPAANTVKFRCPAGGNPMPTMRWLKNGKEFKQEHRIGGYKVRNQHWSLIMESVVPSDKGNYTCVVENEYGSINHTYHLDVVERSPHRPILQAGLPANASTVVGGDVEFVCKVYSDAQPHIQWIKHVEKNGSKYGPDGLPYLKVLKAAGVNTTDKEIEVLYIRNVTFEDAGEYTCLAGNSIGISFHSAWLTVLPAPGRE | soluble
MSLDTMWFRNIDNFINEINRFALLGTVTNKNGWLINNGIYYAGRLGKLHSTPTKGQQVVTDAMRIYPYLGEQYFVAAEQITTNYGGIDANGKTVNLDQIREEGKKKYLPKTYTFDDGAIVFKAGDKVSEEKIKRLYWAAKEVRSQFYRTVGSDKPLEKWTCEGHHHHHH | not soluble
MASFVTSKRDFRARAHSNPLNDAEFLVPEDPLRFDWSPFIPDVGSHPIDYVDLGCGYGGLLCELSIAFPNKYMLGMEIRDRVASYCVTKLEELRRLNSKGYRNIGFIRTNCMKFLPFYFPPSSVEKFFICFPDPHFKKKKHRQRLVSLRFLSEAAYCLRPGGMIYIVTDVEELFAWMTNLFAQHPLFLTMDKELVKQQDVLLPYLLNHTDEAQRMKRRGQDTPYWNVFQRKTVFC | not soluble

Source: the DeepSol protein solubility set
